In patent US20190328899A1 (HEIDELBERG PHARMA RESEARCH, published 2019):

T1: B-Cell maturation antigen (BCMA) on BCMA-expressing multiple myeloma cell lines (human, UniProt Q02223 1-184)
T1 sequence (looked up): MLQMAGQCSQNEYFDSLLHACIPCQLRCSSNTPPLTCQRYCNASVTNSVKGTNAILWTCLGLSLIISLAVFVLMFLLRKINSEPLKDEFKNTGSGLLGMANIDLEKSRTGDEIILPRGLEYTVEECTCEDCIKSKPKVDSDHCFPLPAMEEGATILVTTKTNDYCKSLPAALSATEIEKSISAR

B1: J22.9-ISY-D265C-30.1699 (antibody, V domains shown)
VH: EVQLVESGGGLVQPGGSLRLSCAASGFTFSRYWISWVRQAPGKGLVWVGEINPSSSTINYAPSLKDKFTISRDNAKNTLYLQMNSLRAEDTAVYYCASLYYDYGDAYDYWGQGTLVTVSS
VL: EIVMTQSPATLSVSPGERATLSCKASQSVESNVAWYQQKPGQAPRALIYSASLRFSGIPARFSGSGSGTEFTLTISSLQSEDFAVYYCQQYNNYPLTFGAGTKLELKR
modifications: alpha-amanitin-linker HDP 30.1699 (cathepsin B cleavable linker, maleimide) on the engineered Cys 265
B2: Thiomab antibody J22.9-ISY-D265C (antibody, human IgG1, kappa, V domains shown)
VH: EVQLVESGGGLVQPGGSLRLSCAASGFTFSRYWISWVRQAPGKGLVWVGEINPSSSTINYAPSLKDKFTISRDNAKNTLYLQMNSLRAEDTAVYYCASLYYDYGDAYDYWGQGTLVTVSS
VL: EIVMTQSPATLSVSPGERATLSCKASQSVESNVAWYQQKPGQAPRALIYSASLRFSGIPARFSGSGSGTEFTLTISSLQSEDFAVYYCQQYNNYPLTFGAGTKLELKR
notes: Unconjugated antibody; also called thiomab J22.9-ISY-D265C
B3: amanitin-conjugate J22.9-ISY-D265C-30.2115 (antibody, V domains shown)
VH: EVQLVESGGGLVQPGGSLRLSCAASGFTFSRYWISWVRQAPGKGLVWVGEINPSSSTINYAPSLKDKFTISRDNAKNTLYLQMNSLRAEDTAVYYCASLYYDYGDAYDYWGQGTLVTVSS
VL: EIVMTQSPATLSVSPGERATLSCKASQSVESNVAWYQQKPGQAPRALIYSASLRFSGIPARFSGSGSGTEFTLTISSLQSEDFAVYYCQQYNNYPLTFGAGTKLELKR
modifications: amatoxin-linker HDP 30.2115 (cathepsin B cleavable linker, maleimide) on the engineered Cys 265

What was measured:
[1] = target: B-Cell maturation antigen (BCMA) on BCMA-expressing multiple myeloma cell lines (human) (UniProt Q02223); assay: cell-based or functional assay
[2] = target: T1, B-Cell maturation antigen (BCMA) on …; assay: cell-based or functional assay
[3] = target: T1, B-Cell maturation antigen (BCMA) on …; assay: flow cytometry-binding assay on MM.1S Luc and NCI-H929 cells
[4] = target: T1, B-Cell maturation antigen (BCMA) on …; assay: cell-based or functional assay; remark: listed apart in the source

Molecule | cytotoxic potential EC50, KMS-11 cells, 96 h [1] | cytotoxic potential EC50, MM.1S Luc cells, 96 h [1] | cytotoxicity EC50 [M], MM.1S Luc cells, 96 h [2] | cytotoxicity EC50 [M], MM.1S cells, 96 h [2] | cytotoxicity EC50 [M], NCI-H929 cells, 96 h [2] | cytotoxicity EC50 [M], OPM-2 cells, 96 h [2] | cytotoxicity EC50 [M], U266B1 cells, 96 h [2] | binding result [3] | cytotoxic potential EC50, KMS-11 cells, 96 h [4] | cytotoxic potential EC50, MM.1S Luc cells, 96 h [4]
monomethyl auristatin F derivative J22.9-ISY-MMAF (antibody) | 0.626 nM | 0.481 nM | – | – | – | – | – | – | – | –
B1 | – | – | 6.5e-11 M | 1.7e-10 M | 7e-11 M | 7.9e-09 M | 7.3e-11 M | – | – | –
B2 | – | – | – | – | – | – | – | binds | – | –
B3 | – | – | 2.3e-10 M | 2.9e-10 M | 9.7e-11 M | 1.4e-07 M | 1.4e-10 M | – | 1.72 nM | 0.557 nM
